No end group written: not given here.
Target: recombinant human TLR2 ectodomain (human, UniProt O60603 19-590, N-linked glycans, predominantly of the high-mannose type)
Test: native gel or EMSA

recombinant human TLR2 ectodomain, sequence (O60603 19-590): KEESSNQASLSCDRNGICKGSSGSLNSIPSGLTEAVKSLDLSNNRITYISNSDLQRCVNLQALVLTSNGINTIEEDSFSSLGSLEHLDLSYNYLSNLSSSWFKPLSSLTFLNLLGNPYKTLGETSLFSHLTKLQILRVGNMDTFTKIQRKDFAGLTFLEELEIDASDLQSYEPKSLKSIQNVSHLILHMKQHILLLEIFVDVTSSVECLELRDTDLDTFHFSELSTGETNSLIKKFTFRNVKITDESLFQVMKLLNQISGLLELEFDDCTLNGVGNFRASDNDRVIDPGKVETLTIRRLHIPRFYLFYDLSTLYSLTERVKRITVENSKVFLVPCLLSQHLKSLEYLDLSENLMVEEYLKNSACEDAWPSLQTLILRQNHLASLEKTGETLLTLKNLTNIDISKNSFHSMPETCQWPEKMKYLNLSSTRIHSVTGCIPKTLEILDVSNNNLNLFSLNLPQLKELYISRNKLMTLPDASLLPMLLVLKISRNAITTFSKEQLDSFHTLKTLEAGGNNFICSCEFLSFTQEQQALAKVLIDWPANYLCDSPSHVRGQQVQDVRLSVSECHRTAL

Binder: C(2,3‑bis‑palmitoyloxypropyl)GDPKHPKSFK-{Aca-Aca-Fluorescein} [S-(2,3-bis-palmitoyloxypropyl)-Cys-Gly-Asp-Pro-Lys-His-Pro-Lys-Ser-Phe-K-Aca-Aca-Fluorescein]
- binding result: binds
